Earlier results, collected in paper PMC5727865.

Target: gp120 gp120 (Human immunodeficiency virus 1) (UniProt O70902)
UniProt O70902, sequence (O70902 29-500): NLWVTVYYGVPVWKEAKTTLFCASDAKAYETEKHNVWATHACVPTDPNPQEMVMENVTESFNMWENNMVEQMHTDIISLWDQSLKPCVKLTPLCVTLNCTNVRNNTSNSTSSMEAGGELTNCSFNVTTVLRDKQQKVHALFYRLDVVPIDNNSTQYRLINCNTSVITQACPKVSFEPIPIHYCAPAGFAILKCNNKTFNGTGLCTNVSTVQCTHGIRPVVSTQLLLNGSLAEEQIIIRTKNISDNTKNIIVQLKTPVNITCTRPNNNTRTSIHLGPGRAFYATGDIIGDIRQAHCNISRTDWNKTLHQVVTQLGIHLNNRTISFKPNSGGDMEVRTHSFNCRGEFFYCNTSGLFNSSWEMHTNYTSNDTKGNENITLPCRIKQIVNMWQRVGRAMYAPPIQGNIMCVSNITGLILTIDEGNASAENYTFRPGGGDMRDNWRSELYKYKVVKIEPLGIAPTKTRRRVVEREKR

In the case of DC-SIGN (from UniProt Q9NNX6), the Kd is listed as 1.7 nM.
